# Assay results as given in article doi:10.1101/212290 (bioRxiv, 2017).
# B1: IscX (natural protein)
# chain: MGLKWTDSREIGEALYDAYPDLDPKTVRFTDMHQWICDLEDFDDDPQASNEKILEAILLVWLDEAE
# modifications: most likely a mixed disulfide with beta-mercaptoethanol (+76 Da) on the majority of the protein
# Molecular target: IscU-IscS complex (E. coli, UniProt P0A6B7;P0ACD4, biotin (site not stated))
# Assay: BLI
# Chain of IscU-IscS complex (P0A6B7 whole entry, chain 1 of 2): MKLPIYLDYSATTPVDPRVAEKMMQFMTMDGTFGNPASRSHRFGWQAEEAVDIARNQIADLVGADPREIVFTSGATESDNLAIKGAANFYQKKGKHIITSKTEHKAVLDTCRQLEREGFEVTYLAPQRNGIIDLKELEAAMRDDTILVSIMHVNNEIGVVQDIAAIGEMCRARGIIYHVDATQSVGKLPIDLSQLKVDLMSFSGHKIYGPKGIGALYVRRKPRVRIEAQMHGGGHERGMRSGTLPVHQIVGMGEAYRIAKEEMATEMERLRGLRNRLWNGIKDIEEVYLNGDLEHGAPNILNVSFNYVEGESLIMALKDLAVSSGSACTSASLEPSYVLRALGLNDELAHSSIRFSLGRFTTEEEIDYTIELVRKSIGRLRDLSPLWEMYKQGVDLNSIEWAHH
# Chain of IscU-IscS complex (P0ACD4 2-128, chain 2 of 2): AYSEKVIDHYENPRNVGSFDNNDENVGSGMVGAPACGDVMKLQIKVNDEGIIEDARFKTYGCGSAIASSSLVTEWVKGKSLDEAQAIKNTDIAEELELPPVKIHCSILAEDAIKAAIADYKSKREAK
binder,measurement,value
B1,Kd,8 ± 2 µM
